Measured values reported in article PMC8268110.
Where “and” joins values, the source holds several entries; their conditions need not be identical. Equal values may be shown once.

Tests used:
[1] = molecular target: Nrl1 (full length), BACTH fusion (S. pombe) (UniProt O42975); test: two-hybrid; bacterial two-hybrid (BACTH) in E. coli BTH101; full-length ORFs in pUT18C and pKT25, both combinations; X-gal/IPTG plates and β-galactosidase activity assay at 28 °C in Miller units; eight biological replicates
[2] = molecular target: Nrl1 (full length), BACTH fusion (S. pombe) (UniProt O42975); test: two-hybrid; bacterial two-hybrid (BACTH) in E. coli BTH101; Nrl1 or its truncations in pUT18C, RNA-processing factors in pKT25; β-galactosidase activity assay at 28 °C in Miller units; eight biological replicates
[3] = molecular target: Nrl1(C-term), C-terminal region (493–972 aa), BACTH fusion (S. pombe) (UniProt O42975); test: as above
[4] = molecular target: Nrl1(N-term + NRDE-2), N-terminus with NRDE2 domain (1–492 aa), BACTH fusion (S. pombe) (UniProt O42975); test: as above
[5] = molecular target: Nrl1(N-term), N-terminal region (1–159 aa), BACTH fusion (S. pombe) (UniProt O42975); test: as above

| Substance | β-galactosidase activity (Miller units) [1] | β-galactosidase activity (Miller units) [2] [Miller units] | β-galactosidase activity (Miller units) [3] [Miller units] | β-galactosidase activity (Miller units) [4] [Miller units] | β-galactosidase activity (Miller units) [5] [Miller units] |
| --- | --- | --- | --- | --- | --- |
| Ctr1, BACTH fusion (natural protein) | 977 Miller units and 1090 Miller units | 1080 | 708 |  |  |
| Mtl1, BACTH fusion (natural protein) | 1440 Miller units and 1450 Miller units | 1460 |  | 1560 | 1510 |
| Ntr2, BACTH fusion (natural protein) | 739 Miller units and 467 Miller units | 583 | 495 |  |  |
